From patent US20200200749A1 (VANDERBILT UNIVERSITY, published 2020)

Experiments:
[1] = target: T1, EBOV GP (recombinant, full-length extracellular domain) (EBOV (Ebola Zaire), UniProt Q05320 33-650); assay: ELISA, GP coated on plate, mAb serially diluted
T1 sequence: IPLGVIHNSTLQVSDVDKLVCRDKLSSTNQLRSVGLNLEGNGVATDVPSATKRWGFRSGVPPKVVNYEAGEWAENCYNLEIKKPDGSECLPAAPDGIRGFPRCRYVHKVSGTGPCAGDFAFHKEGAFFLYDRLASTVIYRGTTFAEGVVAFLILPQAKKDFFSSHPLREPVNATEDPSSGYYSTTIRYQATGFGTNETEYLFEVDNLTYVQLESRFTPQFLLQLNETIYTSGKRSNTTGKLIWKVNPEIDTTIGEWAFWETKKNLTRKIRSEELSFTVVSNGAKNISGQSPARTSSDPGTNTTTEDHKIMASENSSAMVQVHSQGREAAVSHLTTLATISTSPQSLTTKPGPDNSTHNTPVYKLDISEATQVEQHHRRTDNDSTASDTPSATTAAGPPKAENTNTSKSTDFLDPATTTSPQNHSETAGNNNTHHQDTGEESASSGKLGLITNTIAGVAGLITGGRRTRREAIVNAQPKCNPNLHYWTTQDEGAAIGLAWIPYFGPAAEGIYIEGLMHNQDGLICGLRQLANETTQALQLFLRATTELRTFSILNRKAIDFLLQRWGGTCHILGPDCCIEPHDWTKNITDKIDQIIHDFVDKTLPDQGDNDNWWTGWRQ

[2] = target: T2, EBOV sGP (EBOV (Ebola Zaire), UniProt P60170 33-324); assay: ELISA, sGP coated on plate, mAb serially diluted
T2 sequence: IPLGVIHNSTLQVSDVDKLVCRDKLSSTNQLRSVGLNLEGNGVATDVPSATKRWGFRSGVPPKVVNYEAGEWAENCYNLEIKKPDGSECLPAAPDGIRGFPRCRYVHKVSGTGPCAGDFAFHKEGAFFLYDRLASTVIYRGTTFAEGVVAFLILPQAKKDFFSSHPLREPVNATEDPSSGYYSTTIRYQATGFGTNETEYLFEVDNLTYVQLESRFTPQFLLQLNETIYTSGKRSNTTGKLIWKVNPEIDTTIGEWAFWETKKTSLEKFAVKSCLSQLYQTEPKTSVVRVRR

[3] = target: T3, SUDV GP (recombinant) (SUDV (Sudan ebolavirus), UniProt Q66814 33-650); assay: ELISA, GP coated on plate, mAb serially diluted
T3 sequence: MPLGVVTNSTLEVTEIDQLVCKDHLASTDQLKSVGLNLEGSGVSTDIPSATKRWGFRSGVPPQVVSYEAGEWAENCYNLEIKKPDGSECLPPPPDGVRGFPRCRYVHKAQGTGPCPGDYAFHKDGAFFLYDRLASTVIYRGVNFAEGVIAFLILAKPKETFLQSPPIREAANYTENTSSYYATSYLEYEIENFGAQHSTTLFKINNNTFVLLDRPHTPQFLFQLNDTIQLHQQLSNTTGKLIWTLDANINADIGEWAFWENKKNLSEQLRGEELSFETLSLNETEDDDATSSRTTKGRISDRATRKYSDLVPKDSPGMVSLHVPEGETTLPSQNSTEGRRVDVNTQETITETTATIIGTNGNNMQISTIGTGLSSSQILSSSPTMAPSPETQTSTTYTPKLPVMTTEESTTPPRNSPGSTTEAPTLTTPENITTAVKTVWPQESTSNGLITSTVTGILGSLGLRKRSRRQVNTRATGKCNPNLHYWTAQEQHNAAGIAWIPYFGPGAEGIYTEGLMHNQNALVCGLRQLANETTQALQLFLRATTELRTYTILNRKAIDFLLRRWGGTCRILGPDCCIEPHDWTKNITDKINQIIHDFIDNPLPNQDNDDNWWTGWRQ

B1: EBOV62 (antibody, V domains shown)
VH: EVQLVESGGGLVQPGGSLRLSCAASGFTFSSYWMSWVRQAPGKGLEWVANIKQDGSAKYYVDSVKGRFTISRDNAKNSLYLQMNSLRAEDTAVYYCARDGLLGISDLLYPIYYFDYWGQGTLVTVSS
VL: DIVMTQSPSSLSASVGDRVTITCRASQNIGSYLNWYQQKPGKAPNLLMYAASSLQSGVPSRFSGSGSGTDFTLTITSLQPEDFATYYCQQSYSIPRTFGQGTQLEIK
- EC50 [1]: 228 µg/mL
- EC50 [2]: 51 µg/mL

B2: EBOV52 (antibody, V domains shown)
VH: QVQLQESGPGLVKPSETLSLNCTVSGGSISSYYWSWIRQPPGKGLEWIGYIYDSGRTKYNPSLKSRVTISLDTSKNQFSLKLSSVTAADTAVYYCASLGPFDKLWFGELLPGWFDPWGQGTLVTVSS
VL: EIVLTQSPATLSLSPGGRATLSCRASQSVHNYLAWYQQKSGQAPRLLIYDASNRATGIPARFSGSGSGTDFTLTISSLEPDDFAVYYCQHRSNWLTFGGGTKVEIK
- EC50 [1]: 712 µg/mL
- EC50 [2]: 82 µg/mL

B3: EBOV87 (antibody, V domains shown)
VH: QVQLVQSGAEVKRPGASVKVSCKASGYTFTSYAISWVRQAPGQGLEWMGWISGNNGNTNYAQKLQGRLTMTTDTSTSTAYMELRSLRSDDTAVYYCARDADIVVVVGATGTYYYGMDVWGQGTLVTVSS
VL: DIVMTQSPSTLSASVGDRVTITCRASQSISSWLAWYQQKPGKAPKLLIYDASSLESGVPSRFSGSGSGTEFTLTISSLQPDDFATYYCQQYKSSLRTFGQGTQLEIK
- EC50 [1]: 724 µg/mL
- EC50 [3]: 629 µg/mL
- EC50 [2]: 51 µg/mL

B4: EBOV49 (antibody, V domains shown)
VH: EVQLVESGGGLVQPGGSLRLSCAASGFTFSSYEINWVRQAPGRGLEWVSYISSSGRTIYYADSVKGRFTISRDNAKNSLYLQMNSLRAEDTAVYYCAREPYVDGILYGAGDSYFDYWGQGTLVTVSS
VL: DIQMTQSPSSLSASVGDRVTITCRASQSISNYLNWYQQKPGKAPKVLIYAASSLQSGVSSRFSGSGSGTDFTLTISSLQPEDFATYFCQQSYNTPPVTFGQGTRLEIK
- EC50 [1]: 262 µg/mL
- EC50 [2]: 61 µg/mL

B5: EBOV63 (antibody, V domains shown)
VH: EVQLVESGGGLVKPGGSLRLSCAASGFTLNFYNMNWVRQAPGKGLEWVSSISSSSNYIYYADSVKGRFTISRDNARKSLYLQMNSLRAEDTAVYYCARDFVQLLIPQRDEWQGVHDYYGMDVWGQGTLVTVSS
VL: EIVLTQSPGTLSLSPGGRATLSCRASQSVSNSYLAWYQQKPGQAPRLLIYGASSRATGIPDRFSGSGSGTDFILTISRLEPEDFAVYYCQHYGSSQLTFGGGTKVEIK
- EC50 [1]: 283 µg/mL
- EC50 [2]: 38 µg/mL
